The target in test [1] is 14-3-3ζ (UniProt P63104). As to the kind of experiment: fluorescence polarisation. For orientation: Fluorescence polarisation rises when a labelled molecule tumbles more slowly, as on binding a larger partner.
In test [2] the target is 14-3-3ζ (UniProt P63104). In words: fluorescence polarisation. This is another data set of the same source.
Test [3] deals with 14-3-3ζ (UniProt P63104). As to the kind of experiment: fluorescence polarisation. The source holds these as a separate data set.
Test [4] has as its target 14-3-3ζ (UniProt P63104). As to the kind of experiment: fluorescence polarisation. The source holds these as a separate data set.
In test [5] the target is 14-3-3ζ (UniProt P63104). As to the kind of experiment: ITC. To be noted: for binding against the reference: reference: 240pi.
In test [6] the target is 14-3-3ζ (UniProt P63104). In words: fluorescence polarisation titration, FAM-labelled peptides. As to conditions: for binding against the reference: reference: 240pi.
The target of another test is T1, 14-3-3ζ protein, P63104.
T1 chain: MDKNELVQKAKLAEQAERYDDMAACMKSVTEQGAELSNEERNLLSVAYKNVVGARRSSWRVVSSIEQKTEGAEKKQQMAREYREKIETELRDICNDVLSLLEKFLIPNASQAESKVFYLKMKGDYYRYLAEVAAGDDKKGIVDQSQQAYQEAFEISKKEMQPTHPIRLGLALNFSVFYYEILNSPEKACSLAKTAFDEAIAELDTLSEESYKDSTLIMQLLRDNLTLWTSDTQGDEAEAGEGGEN
As to the kind of experiment: native gel or EMSA + cross-linking + other: MALDI-TOF. To be noted: remark: other sources report otherwise.

Where two headings read alike, the source gives them in different places.

The koff is the rate constant with which the complex falls apart. By Kd is commonly meant the constant that tells how readily two partners part at equilibrium. A higher Kd goes with lower affinity. In the case of “FAM-labeled Rnd3 C-terminal peptide (207–241) 218_240pi (from UniProt P61587 207-241)”, in the test with 14-3-3ζ [1], the koff amounted to 8.42 s⁻¹. Besides, in the test with 14-3-3ζ [2], the Kd was determined as 400 nM, the ka,1 (two-step fit assuming pS218 binds first; rejected by the paper) stood at 16.7 μM^−1 s^−1, the ka,2 (second step of the two-step fit) came to 66.2 s⁻¹ and the ka,2 (two-step fit assuming pS218 binds first; rejected by the paper) is 29.8 s^−1. In the test with 14-3-3ζ [2], this molecule gave a kd,1 (two-step fit assuming pS218 binds first; rejected by the paper) of 53.8 s^−1, a kd,2 (two-step fit assuming pS218 binds first; rejected by the paper) of 8.64 s^−1 and a koff of 9.69 s⁻¹. In the test with 14-3-3ζ [3], this molecule came in with a ka,1 (first step of the two-step fit) of 5.75e+07 M⁻¹ s⁻¹, a ka,2 (second step of the two-step fit) of 62.2 s⁻¹, a kd,1 (first step of the two-step fit) of 35.2 s⁻¹ and a kd,2 (second step of the two-step fit) of 38.9 s⁻¹.
For orientation: kon means a measure of how fast the partners come together. In the test with 14-3-3ζ [2], “FAM-labeled Rnd3 C-terminal peptide (207–241) 240pi (from UniProt P61587 207-241)” yielded a Ka of 290000 M⁻¹, a Kd of 3390 nM and a koff of 63.9 s⁻¹. Also, in the test with 14-3-3ζ [3], the Kd was determined as 1490 nM, the koff came to 44.2 s⁻¹ and the kon is 2.96e+07 M⁻¹ s⁻¹.
In the test with 14-3-3ζ [2], “FAM-labeled Rnd3 C-terminal peptide (207–241) 240piFar (from UniProt P61587 207-241)” gave a Ka of 3.13e+06 M⁻¹, a Kd of 320 nM, a ka,1 (two-step fit assuming pS240 binds first; rejected by the paper) of 31.1 μM^−1 s^−1 and a ka,2 (two-step fit assuming pS240 binds first; rejected by the paper) of 60.2 s^−1. In the test with 14-3-3ζ [2], the kd,1 (two-step fit assuming pS240 binds first; rejected by the paper) worked out at 13 s^−1, the kd,2 (two-step fit assuming pS240 binds first; rejected by the paper) is 345 s^−1 and the koff was 10.9 s⁻¹. In addition, in the test with 14-3-3ζ [3], the ka,1 (first step of the two-step fit) came out at 3.92e+07 M⁻¹ s⁻¹, the ka,2 (second step of the two-step fit) stood at 25.6 s⁻¹, the kd,1 (first step of the two-step fit) was 19.9 s⁻¹ and the kd,2 (second step of the two-step fit) worked out at 54.5 s⁻¹. This molecule came in with a koff in the test with 14-3-3ζ [4] of 8.02 s⁻¹.
As to “FAM-labeled Rnd3 C-terminal peptide (207–241) no_piFar (from UniProt P61587 207-241)”, the Ka in the test with 14-3-3ζ [2] was found to be 130000 M⁻¹.
For the molecule “Rnd3 207-241 (from UniProt P61587) 210_240pi”, the “binding against the reference” value with 14-3-3ζ [5] (sites S210) and with 14-3-3ζ [6] (sites S210) was “stronger” in each case.
“Rnd3 207-241 (from UniProt P61587) 218_240pi”: in the test with 14-3-3ζ [5] (sites S218), the “binding against the reference” value was “stronger”.
For the molecule “Rnd3 207-241 (from UniProt P61587) 240piFar”, the “other: association constant K” value with 14-3-3ζ [6] (reference: no_piFar, sites S240) is given as “stronger; reference 0.13”.
As for “Rnd3 207-241 (from UniProt P61587) all_pi”, the “binding against the reference” value with 14-3-3ζ [5] (sites S210,S218) and with 14-3-3ζ [6] (sites S210,S218) was “stronger” each time.
Regarding “Rnd3 C-terminal peptide (207–241) 210_240pi (from UniProt P61587 207-241)”, in the test with 14-3-3ζ [5], the dH was -8.76 kcal/mol and the stoichiometry N (peptide per 14-3-3ζ) came to 0.5.
The like results for “Rnd3 C-terminal peptide (207–241) 210_240piFar (from UniProt P61587 207-241)” were, in that order, -7.35 kcal/mol and 0.5.
Taken in the same sequence, the figures for “Rnd3 C-terminal peptide (207–241) 218_240pi (from UniProt P61587 207-241)” were -6.22 kcal/mol and 0.5.
The like results for “Rnd3 C-terminal peptide (207–241) 218_240piFar (from UniProt P61587 207-241)” were, in that order, -5.58 kcal/mol and 0.5.
“Rnd3 C-terminal peptide (207–241) 240pi (from UniProt P61587 207-241)”: in the test with 14-3-3ζ [5], the dH is -3.53 kcal/mol and the stoichiometry N (peptide per 14-3-3ζ) was found to be 1.
The like results for “Rnd3 C-terminal peptide (207–241) 240piFar (from UniProt P61587 207-241)” were, in that order, -3.56 kcal/mol and 1.
The like results for “Rnd3 C-terminal peptide (207–241) all_pi, triply phosphorylated (from UniProt P61587 207-241)” were, in that order, -7.15 kcal/mol and 0.5.
Taken in the same sequence, the figures for “Rnd3 C-terminal peptide (207–241) all_piFar (from UniProt P61587 207-241)” were -6.26 kcal/mol and 0.5.
In the case of “Rnd3 C-terminal peptide (207–241) no_piFar, farnesylated, without phosphate (from UniProt P61587 207-241)”, the dH with 14-3-3ζ [5] came out at 0.703 kcal/mol.

B1: 14-3-3ζ protein, P63104 1-245 (natural protein)
chain: MDKNELVQKAKLAEQAERYDDMAACMKSVTEQGAELSNEERNLLSVAYKNVVGARRSSWRVVSSIEQKTEGAEKKQQMAREYREKIETELRDICNDVLSLLEKFLIPNASQAESKVFYLKMKGDYYRYLAEVAAGDDKKGIVDQSQQAYQEAFEISKKEMQPTHPIRLGLALNFSVFYYEILNSPEKACSLAKTAFDEAIAELDTLSEESYKDSTLIMQLLRDNLTLWTSDTQGDEAEAGEGGEN
The stoichiometry N is a count of units in the complex or per binding partner. Turning to B1, the stoichiometry N in the test with 14-3-3ζ protein, P63104 stood at 2.

The values above are taken from paper PMC8179448.
